Four molecules from patent US20150158947A1 (COMPUGEN, published 2015) can be followed below.

The term EC50 (read off the curve) denotes the concentration at which the effect is half-maximal.

Where “and” joins values, the source holds several entries; their conditions need not be identical. Equal values may be shown once.

For test [1], the target named is T1, human C1ORF32-HA tagged protein (SEQ ID NO: 22) (human).
T1 chain: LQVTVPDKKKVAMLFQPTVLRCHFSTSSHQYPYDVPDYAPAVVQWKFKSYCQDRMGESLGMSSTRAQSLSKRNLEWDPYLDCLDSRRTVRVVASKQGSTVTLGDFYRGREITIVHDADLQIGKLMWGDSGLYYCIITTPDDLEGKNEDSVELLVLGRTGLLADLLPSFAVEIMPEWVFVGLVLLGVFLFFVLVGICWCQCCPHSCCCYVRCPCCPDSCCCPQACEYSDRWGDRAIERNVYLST
Kind of test: flow cytometry on HEK293T cells expressing human C1ORF32-HA tagged (SEQ ID NO: 22), antibody 20 ug/ml, anti mouse DyLight 549 secondary. The method, then: (§1) FIG. 5A presents empty vector transfected cells; FIG. 5B presents human-C1ORF32 transfected cells (SEQ ID NO:1), FIG. 5C presents human-C1ORF32-HA tagged transfected cells(SEQ ID NO: 22); FIG. 5D presents chimeric mouse-human C1ORF32 transfected cells (SEQ ID NO: 8); FIG. 5E presents mouse C1ORF32 transfected cells (SEQ ID NO: 21).
(§2) Flow Cytometry analysis was performed to verify the mAbs binding to native cell surfaced C1ORF32 protein (SEQ ID NO: 1) in stable transfected cells described above. […] Anti-Cephalosporin served as negative control (SLRC, CH2025P). Recombinant HEK293T cells expressing C1ORF32 proteins, i.e. human C1ORF32 (SEQ ID NO:1), chimeric human-mouse C1ORF32 (SEQ ID NO:8) and mouse C1ORF32—Flag tagged (SEQ ID NO:21) were stained with anti C1ORF32 antibodies or anti-Cephalosporin followed by Donkey Anti Mouse-DyLight 549 conjugated secondary Ab (Jackson 715-506-150) as described in Example 6, herein. Fluorescent signal was observed.
A general note: In flow cytometry, cells or beads pass a laser one at a time.

The target in test [2] is T2, mouse C1ORF32-Flag tagged protein (SEQ ID NO: 21) (mouse, UniProt B5TVM2 36-661).
T2 sequence: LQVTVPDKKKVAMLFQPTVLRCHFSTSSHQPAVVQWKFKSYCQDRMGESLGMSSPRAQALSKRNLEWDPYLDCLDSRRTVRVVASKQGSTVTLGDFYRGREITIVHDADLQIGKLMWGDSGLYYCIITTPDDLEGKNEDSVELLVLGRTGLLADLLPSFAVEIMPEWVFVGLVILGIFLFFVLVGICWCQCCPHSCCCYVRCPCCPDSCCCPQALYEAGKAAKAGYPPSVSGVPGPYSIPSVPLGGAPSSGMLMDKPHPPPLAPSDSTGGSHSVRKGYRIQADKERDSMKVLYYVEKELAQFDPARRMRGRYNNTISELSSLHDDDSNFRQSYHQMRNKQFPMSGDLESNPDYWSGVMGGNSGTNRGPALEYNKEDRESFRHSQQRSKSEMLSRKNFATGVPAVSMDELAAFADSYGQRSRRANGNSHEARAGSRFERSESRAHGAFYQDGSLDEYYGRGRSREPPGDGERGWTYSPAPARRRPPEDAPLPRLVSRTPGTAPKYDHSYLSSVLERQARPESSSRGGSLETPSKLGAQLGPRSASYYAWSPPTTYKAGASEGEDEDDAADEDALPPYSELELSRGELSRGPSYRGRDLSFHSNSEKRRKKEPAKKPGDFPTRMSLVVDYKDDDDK
Kind of test: flow cytometry on HEK293T cells expressing mouse C1ORF32-Flag (SEQ ID NO: 21; panel title: 293-C1ORF32 HA MOUSE CELLS), antibody 20 ug/ml, anti mouse DyLight 549 secondary. How it is done:
as §1, §2

The target in test [3] is T3, chimeric mouse-human C1ORF32 (SEQ ID NO: 8) (chimeric mouse (ECD) / human (tail), UniProt B5TVM2 36-249).
T3 construct: also called mouse-human chimeric C1ORF32; chimeric human-mouse C1ORF32
T3 chain: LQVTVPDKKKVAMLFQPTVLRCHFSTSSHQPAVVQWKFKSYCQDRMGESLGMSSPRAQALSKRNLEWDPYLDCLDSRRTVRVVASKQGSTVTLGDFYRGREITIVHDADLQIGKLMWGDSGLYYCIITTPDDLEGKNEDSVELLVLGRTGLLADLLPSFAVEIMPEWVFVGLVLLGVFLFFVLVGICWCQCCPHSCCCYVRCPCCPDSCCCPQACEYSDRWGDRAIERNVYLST
Kind of test: flow cytometry on HEK293T cells expressing chimeric mouse-human C1ORF32 (SEQ ID NO: 8; panel title: 293T-C1ORF32 HA MUTATED CELLS), antibody 20 ug/ml, anti mouse DyLight 549 secondary. The method, then: as §1, §2

Test [4] addresses T4, C1ORF32-ECD-mouse IgG2a-fused protein (SEQ ID NO: 4) (human C1ORF32 ECD, mouse IgG2a Fc).
T4 construct: Purified recombinant fusion protein; also called C1ORF32-ECD-mouse IgG2a fusion protein; recombinant ECD-mIgG2a fusion protein
T4 chain: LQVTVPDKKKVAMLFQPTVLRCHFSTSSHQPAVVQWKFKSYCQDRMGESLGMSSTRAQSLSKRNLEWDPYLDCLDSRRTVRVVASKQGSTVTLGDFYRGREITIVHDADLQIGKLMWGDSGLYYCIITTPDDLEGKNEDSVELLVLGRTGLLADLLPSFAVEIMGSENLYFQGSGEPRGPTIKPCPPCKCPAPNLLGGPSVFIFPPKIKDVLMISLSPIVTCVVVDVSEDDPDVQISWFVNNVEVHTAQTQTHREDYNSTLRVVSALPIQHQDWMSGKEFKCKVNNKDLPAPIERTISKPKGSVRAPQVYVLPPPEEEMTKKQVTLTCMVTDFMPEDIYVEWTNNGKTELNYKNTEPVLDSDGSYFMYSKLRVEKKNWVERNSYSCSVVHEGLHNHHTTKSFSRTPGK
Kind of test: hybridoma binding screen by ELISA on ECD-mIgG2a fusion protein (SEQ ID NO: 4) or on HEK-293T cells over expressing C1ORF32. The source says:
Three positive clones were further processed for subcloning in order to establish stable hybridoma clones. Hybridomas were stabilized, subcloned and processed for antibody production and purification.

The target in test [5] is T5, human C1ORF32 protein (SEQ ID NO: 1) (human, UniProt Q71H61 21-234).
T5 construct: Stained on cells in flow cytometry and IHC, and probed in whole-cell lysates in Western blots; also called ILDR2; short isoform of human C1ORF32
T5 sequence: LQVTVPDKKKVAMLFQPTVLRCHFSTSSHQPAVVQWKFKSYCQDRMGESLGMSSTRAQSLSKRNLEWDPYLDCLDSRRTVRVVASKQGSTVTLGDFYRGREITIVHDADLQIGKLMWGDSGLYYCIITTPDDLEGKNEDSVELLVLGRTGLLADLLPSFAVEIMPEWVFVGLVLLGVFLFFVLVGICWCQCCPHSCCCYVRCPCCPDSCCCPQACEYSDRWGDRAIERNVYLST
Kind of test: flow cytometry on HEK293T cells expressing human C1ORF32 untagged (SEQ ID NO: 1), antibody 20 ug/ml, anti mouse DyLight 549 secondary. How it is done:
as §1, §2

The target in test [6] is T5, human C1ORF32 protein (SEQ ID NO: 1). Kind of test: flow cytometry titration of 5159-1 on HEK293T cells expressing human C1ORF32. How it is done: (§3) The cells were washed once in FACS buffer, re-suspended in 25 ul of Alexa Fluor 647 conjugated F(ab′)2 fragment of goat anti mouse IgG (Jackson Immunoresearch cat#115-606-146) for 30 minutes at 4 degrees C. The cells were washed again in FACS buffer, re-suspended in 35 ul of FACS buffer and 35 ul of 4% paraformaldehyde and analysed on either a FACS Calibur or an Intellicyt HTFC. Data was analyzed by FlowJo, Excel and GraphPad Prism.

Test [7] has the same target. Kind of test: flow cytometry titration of 5159-1 on CHOK1 cells expressing human C1ORF32. The method, then:
as §3

Test [8] has the same target. Kind of test: cell-based or functional assay.
The target of test [9] is C1ORF32-ECD-hIgG1 fusion protein (SEQ ID NO: 23). Kind of test: hybridoma binding screen by ELISA on fusion proteins SEQ ID NO: 23 and SEQ ID NO: 24 or on HEK293T cells over expressing C1ORF32. How it is done: (§4) Binding screening was performed by ELISA using fusion proteins C1ORF32-ECD-hIgG1 (SEQ ID NO: 23) and C1ORF32-ECD-mIgG2a (SEQ ID NO: 24) or stable pool of HEK293T cells over expressing C1ORF32 described in section “Generation of stable pools expressing C1ORF32 protein” herein. […] Hybridomas were stabilized, subcloned and processed for antibody production and purification.
In general terms: An ELISA detects its analyte on a solid surface through an enzyme-linked reagent.

Test [10] deals with T6, C1ORF32-ECD-mIgG2a fusion protein (SEQ ID NO: 24).
T6 chain: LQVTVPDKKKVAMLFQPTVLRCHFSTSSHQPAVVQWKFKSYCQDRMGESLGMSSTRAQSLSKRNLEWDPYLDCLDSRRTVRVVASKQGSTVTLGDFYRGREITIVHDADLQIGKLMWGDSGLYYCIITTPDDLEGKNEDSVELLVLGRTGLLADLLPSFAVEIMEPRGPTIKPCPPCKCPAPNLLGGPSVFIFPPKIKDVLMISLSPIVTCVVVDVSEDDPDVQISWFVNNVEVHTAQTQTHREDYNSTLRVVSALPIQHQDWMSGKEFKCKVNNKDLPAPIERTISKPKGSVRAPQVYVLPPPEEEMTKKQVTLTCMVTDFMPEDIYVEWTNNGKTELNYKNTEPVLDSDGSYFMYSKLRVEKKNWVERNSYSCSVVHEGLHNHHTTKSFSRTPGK
Described as above. How it is done:
as §4

B1: anti C1ORF32 monoclonal antibody 5159-2 (antibody, V domains shown)
VH: QVTLKESDPGILQPSQTLSLTCSFSGFSLSTSGMGVGWIRQPSGKGLEWLAHIWWDDVKRYNSALKNRLTISKDTSSSQVFLKIANVDTADTATYYCARIARHFFDYWGQGTTLTVSS
VL: DIKMTQSPSSMYASLGERVTITCKASQDIHGYLSWFHQKPVKSPKTLIYRANRLIDGVPSRFSGSGSGQDYFLTISSLEYEDMGIYYCLQYDEFPWTFGGGTKLEIK
notes: Murine IgG1 k from a hybridoma
Take B1: the binding result in [1], in test [2], in test [3], in [4] and in [5] was “binds” in each case.

B2: anti C1ORF32 monoclonal antibody 5159-1 (antibody, V domains shown)
VH: QVTLKESGPGILQPSQTLNLTCSFSGFSLSSSYMGVGWIRQPSGKGLEWLAHIWWDDVKRYNPALKSRLTISKDISNNQVFLKIASVDTADSATYYCGRIDRHYFDYWGQGTILTVSS
VL: DIKMTQSPSSIYASLGERVTITCKASQDINGYLTWFQQKPGKSPKTLIYRANRLLDGVPSRFSGSGSGQDYSLTISSLDYEDMGIYYCLQYDEFPWTFGGGTKLEIK
notes: as for B1
For the molecule B2, the binding result in [1], in [3] and in [4] was “binds” throughout. The results for the “EC50 (read off the curve)” value in [6] and in test [7] were approximately 0.8 µg/mL and approximately 1 µg/mL, respectively.

B3: anti C1ORF32 monoclonal antibody 5166-9 (antibody, V domains shown)
VH: EVKMVESGGGLVQPGGSLKLSCATSGFTFSDYYMYWVRQTPEKRLEWVAYISNGGGSTYYPDTVKGRFTISRDNAKNTLYLQMSRLKSEDTAMYYCARQGYYYGSSPFAYWGQGTLVTVSA
VL: DIVMTQSHKFMSTSVGDRVSITCKASQDVSTAVAWYQQKPGQSPKLLIYSASYRYTGVPDRFTGSGSGTDFTFTISSVQAEDLAVYYCQQHYSTPYTFGGGTKLEIK
notes: Murine IgM k from a hybridoma
With B3, in test [8], the “CDC activity, EC50, on CHOK1 cells expressing C1ORF32 (CellTiter-Glo viability, rabbit complement, 1 hr)” value is 33 ng/ml and 0.2 nM; the “CDC activity, EC50, on HEK293T cells expressing C1ORF32 (CellTiter-Glo viability, rabbit complement, 1 hr)” value was 1.8 ng/ml and 0.01 nM. The binding result in test [9] is listed as “binds”. The binding result in test [10] was “binds”.

B4: anti C1ORF32 monoclonal antibody 5166-2 (antibody, V domains shown)
VH: QIQLVQSGPELKKPGETVKISCKASAYTFTDYSMHWVKQAPGKGLKWMGWINTETGEPTYAGDFKGRFAFSLETSASTAYLQINNLKNEDTATYFCVRAGYYDYFDYWGQGTTLTVSS
VL: DIVMTQSHKFMSTSVGDRVSITCKASQDVVTAVAWYQQKPGQSPKLLIYWASNRHTGVPDRFTGSGSGTDFTLTITNVQSEDLADYFCQQYSSYPLTFGGGTKLEIK
notes: as for B1
Consider B4, for which the binding result in [9] and in test [10] was “binds” each time.
